Measurements published in publication PMC9499513 (Proceedings of the National Academy of Sciences of the …, 2022).

Target: histone H4 (X. laevis, UniProt P62799 1-103)
Test: cryo-EM structure

binding result: binds
B1: IMPORTIN-4 (natural protein)
chain: MESAGLEQLLRELLLPDTERIRRATEQLQIVLRAPAALPALCDLLASAADPQIRQFAAVLTRRRLNTRWRRLAAEQRESLKSLILTALQRETEHCVSLSLAQLSATIFRKEGLEAWPQLLQLLQHSTHSPHSPEREMGLLLLSVVVTSRPEAFQPHHRELLRLLNETLGEVGSPGLLFYSLRTLTTMAPYLSTEDVPLARMLVPKLIMAMQTLIPIDEAKACEALEALDELLESEVPVITPYLSEVLTFCLEVARNVALGNAIRIRILCCLTFLVKVKSKALLKNRLLPPLLHTLFPIVAAEPPPGQLDPEDQDSEEEELEIELMGETPKHFAVQVVDMLALHLPPEKLCPQLMPMLEEALRSESPYQRKAGLLVLAVLSDGAGDHIRQRLLPPLLQIVCKGLEDPSQVVRNAALFALGQFSENLQPHISSYSREVMPLLLAYLKSVPLGHTHHLAKACYALENFVENLGPKVQPYLPELMECMLQLLRNPSSPRAKELAVSALGAIATAAQASLLPYFPAIMEHLREFLLTGREDLQPVQIQSLETLGVLARAVGEPMRPLAEECCQLGLGLCDQVDDPDLRRCTYSLFAALSGLMGEGLAPHLEQITTLMLLSLRSTEGIVPQYDGSSSFLLFDDESDGEEEEELMDEDVEEEDDSEISGYSVENAFFDEKEDTCAAVGEISVNTSVAFLPYMESVFEEVFKLLECPHLNVRKAAHEALGQFCCALHKACQSCPSEPNTAALQAALARVVPSYMQAVNRERERQVVMAVLEALTGVLRSCGTLTLKPPGRLAELCGVLKAVLQRKTACQDTDEEEEEEDDDQAEYDAMLLEHAGEAIPALAAAAGGDSFAPFFAGFLPLLVCKTKQGCTVAEKSFAVGTLAETIQGLGAASAQFVSRLLPVLLSTAQEADPEVRSNAIFGMGVLAEHGGHPAQEHFPKLLGLLFPLLARERHDRVRDNICGALARLLMASPTRKPEPQVLAALLHALPLKEDLEEWVTIGRLFSFLYQSSPDQVIDVAPELLRICSLILADNKIPPDTKAALLLLLTFLAKQHTDSFQAALGSLPVDKAQELQAVLGLS
